Substrate in this data set: O=C(O)[C@H]1O[C@@H](Oc2ccc([N+](=O)[O-])cc2)[C@H](O)[C@@H](O)[C@@H]1O
The data set can be described thus: Kinetics of pNPG hydrolysis by E. coli GUS (spectrophotometric p-nitrophenol release). It counts as biochemical, Escherichia coli. The settings on record: other: E. coli GUS, substrate pNPG, 37° C., pH 7.0.

Protocol: One such substrate is p-nitrophenyl β-D-glucuronide (pNPG), which when cleaved by GUS releases the chromophore p-nitrophenol. At a pH greater than its pKa (approximately 7.15), the ionized chromophore absorbs light at 400–420 nm, therefore appears in the yellow range of visible light. Briefly, reactions are performed in 50 mM Na3PO4 pH 7.0, 10 mM 2-ME, 1 mM EDTA, 1 mM pNPG, and 0.1% Triton® X-100 at 37° C. The reactions are terminated by the addition of 0.4 ml of 2-amino-2-methylpropanediol, and absorbance measured at 415 nm against a substrate blank. Under these conditions, the molar extinction coefficient of p-nitrophenol is assumed to be 14,000: One unit is defined as the amount of enzyme that produces 1 nmole of product/min at 37° C.
Turnover number is calculated as nmoles of pNPG converted to p-nitrophenol per min per μg of purified protein.

B1: E. coli β-glucuronidase (E. coli GUS, GUS^Eco), wild type, SEQ ID NO: 23 (Escherichia coli K-12) (protein)
chain: MLRPVETPTREIKKLDGLWAFSLDRENCGIDQRWWESALQESRAIAVPGSFNDQFADADIRNYAGNVWYQREVFIPKGWAGQRIVLRFDAVTHYGKVWVNNQEVMEHQGGYTPFEADVTPYVIAGKSVRITVCVNNELNWQTIPPGMVITDENGKKKQSYFHDFFNYAGIHRSVMLYTTPNTWVDDITVVTHVAQDCNHASVDWQVVANGDVSVELRDADQQVVATGQGTSGTLQVVNPHLWQPGEGYLYELCVTAKSQTECDIYPLRVGIRSVAVKGEQFLINHKPFYFTGFGRHEDADLRGKGFDNVLMVHDHALMDWIGANSYRTSHYPYAEEMLDWADEHGIVVIDETAAVGFNLSLGIGFEAGNKPKELYSEEAVNGETQQAHLQAIKELIARDKNHPSVVMWSIANEPDTRPQGAREYFAPLAEATRKLDPTRPITCVNVMFCDAHTDTISDLFDVLCLNRYYGWYVQSGDLETAEKVLEKELLAWQEKLHQPIIITEYGVDTLAGLHSMYTDMWSEEYQCAWLDMYHRVFDRVSAVVGEQVWNFADFATSQGILRVGGNKKGIFTRDRKPKSAAFLLQKRWTGMNFGEKPQQGGKQ
notes: pNPG substrate; functional homotetramer
As to B1, the Km came out at 120 μM pNPG μM and the Vmax stood at 80 nmol/min/µg.

Source of the values: patent publication US7087420B1, “Microbial β-glucuronidase genes, gene products and uses thereof” (Cambia, priority 1997, dated 2006).
